# Measured values reported in the nanobody polyreactivity screen of Harvey et al. (2022).
# Assay: yeast display, Sf9 membrane polyspecificity reagent, FACS + sequencing; frameworks hold sequencing errors
# Method in brief: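 Nanobodies came from a synthetic yeast display library in Saccharomyces cerevisiae BJ5465, induced with galactose for 36–48 hours and stained for 1 hour at 4 °C with 10% biotinylated, detergent-solubilized Sf9 membrane reagent. Cells were enriched on streptavidin microbeads and then FACS-sorted, with low and high (top ~1%) gates set on anti-HA fluorescence for expression and streptavidin fluorescence for reagent binding. Each polyreactivity label reflects the gate a clone came from. Genes were amplified by colony PCR, sequenced by MiSeq 2 × 250 and filtered by CDR length.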
row,Sequence,polyreactivity (PSR sort gate)
1,QVQLVESGGGLVQAGGSLRLSCAASGSTFLYYAMGWYRQAPGKERELVARITTRVGRTYYADSVKGRFTISRDNAKNTVYFQMNSLKPEDTAVYYCAAYPDYSYYYWGQGTQVTVSS,high polyreactivity
2,QVQLVESGGGLVQAGGSLRLSCAASGSTFLYYAMGWYRQAPGKERELVASITRRGGRTYYADSVKGRFTISRDNAKNTVYLQMNSLKPVDTAVYYCNAVYGRQYRGYNYKFFYWGQGTQVTVSS,high polyreactivity
3,QVQLVESGGGLVQAGGSLRLSCAASGSTFLYYEMGWYRQAPGKDRELVAAISASGGSTYYADSVKGRFTISRDNAKSTVYLQMNSLKPEDTAVYYCAAVYHWVRPILYYWGQGTQVTVSS,high polyreactivity
4,QVQLVESGGGLVQAGGSLRLSCAASGSTFNANAMGWYRQAPGKERELVAGISSGGSTYADSVKGRFTISRDNAKNTVYLQMNSLKPEDSAVYYCNADYYSWYPTFYWYDYWGQGSQVTVSS,high polyreactivity
5,QVQLVESGGGLVQAGGSLRLSCAASGSTFNAYAMGWYRQAPGKERELVAAISYTGGSTYYADSVKGRFTISRDNAKNTVYLQMNSLKPEDTAVYYCARRQARKFYYWGQGTQVTVSS,high polyreactivity
6,QVQLVESGGGLVQAGGSLRLSCAASGSTFNDYAMGWYRQAPGKERELVAGITWRGTSTYYADSVKGRFTISRDNAKNTVYLQRNSLKPEDTAVYYCAADVYYLLWLWMDYWGQGTQVTVSS,low polyreactivity
7,QVQLVESGGGLVQAGGSLRLSCAASGSTFNFNAMGWYRQAPGKERELVAAISSSGGSTYYADSVKGRFTISRDNAKNTVYLQMNSLKPEDTAVYYCATVLRKSPLYYYWGQGTQVTVSS,high polyreactivity
8,QVQLVESGGGLVQAGGSLRLSCAASGSTFNGYAMGWYRQAPGKERELVAAISKRGGSTYYADSVKGRFTISRDNAKNTVYLQMNSLKPEETAVYYCAARVGRTYTVVWWSHYNYWGQGTQVTVSS,high polyreactivity
9,QVQLVESGGGLVQAGGSLRLSCAASGSTFNHYAMGWYRQAPGKERELVAAITKSGGSTYADSVKGRFTISRDNAKNTVYIQMNSLKPEDTAVYYCAAGRRKYGTKGRGDYWGQGTQVTVSS,low polyreactivity
10,QVQLVESGGGLVQAGGSLRLSCAASGSTFNINVMGWYRQAPGKERELVASISTGDITYYADSVKGRFTISRDNAKNTVYLQMNSLKPEDTAVYYCAAESYTGKYSWVWKWYDYWGQGTQVTVSS,low polyreactivity
11,QVQLVESGGGLVQAGGSLRLSCAASGSTFNIYGMGWYRQAPGKERELVARISSGGSTYADSVKGRFTISRDNAKNTVYLQMNSLKPEDTAVYYCAAAAARTYRRYRYEGYYYWGQGTQVTVSS,high polyreactivity
12,QVQLVESGGGLVQAGGSLRLSCAASGSTFNKYAMGWYRPPPGKERELVAAISWTGGHTYYADSVKGRFTFSRDNAKNTVYLQMNSLKPEDTAVYYCNTVNSRPKYNYWGQGTQVTVSS,high polyreactivity
13,QVQLVESGGGLVQAGGSLRLSCAASGSTFNKYTMGWYRQAPGKERELVAAISRIGGSTYYADSVKGRFTISRDNAKNTVYLQMNSLKPEDTAVYYCAAPYPIGHDWGQGTQVTVSS,low polyreactivity
14,QVQLVESGGGLVQAGGSLRLSCAASGSTFNLYAMGWYRQAPGKERELVAAISGNGDRTYYADSVKGRFTISRDNAKNTVYLQMNSLKPEDTAVYYCAAKYYGWGQGTQVTVSS,high polyreactivity
15,QVQLVESGGGLVQAGGSLRLSCAASGSTFNNAMGWYRQAPGKERELVAAITRSGVRTYYADSVKGRFTISRDNAKNTVYLQMNSLKPEDTAVYYCAAGFQSRRYYAGYEDWGQGTQVSVSS,high polyreactivity
16,QVQLVESGGGLVQAGGSLRLSCAASGSTFNPYAMGWYRQAPGKERELLAAITWSSDDTYYADSVKGRFTISRDNAKNTVYLQMNSLKPEDTAVYYCAADVIGDLRWYGDEYWGQGTQVTESS,low polyreactivity

row,Sequence,polyreactivity (PSR sort gate)
1,QVQLVESGGGLVQAGGSLRLSCAASGSTFNQYTMGWYRQAPGKERELVAAISKSGGSTYYADSVKGRFTISRDNAKNTVYFQMNSLKPEVTAVYYCAADRYYDYRVDYWGQGTQVTVSS,high polyreactivity
2,QVQLVESGGGLVQAGGSLRLSCAASGSTFNRNAMGWYRHAPGKERELVATISTGGVSTYYADSVKGRFTISRDNAKNTVYLQMNSLKPEDTAVYYCAKRTVYLSNLDYWGQGTQVTVSS,low polyreactivity
3,QVQLVESGGGLVQAGGSLRLSCAASGSTFNRYAMGWYRPAPGKEWELVAAISGSNGGTDYADSVKGRFTISRDNAKNTVYLQMNSLKPEDTAVYYCAKVRAYTRLGLTVSMDYWGQGTQVTVSS,high polyreactivity
4,QVQLVESGGGLVQAGGSLRLSCAASGSTFNRYAMGWYRQAPGKERELVASISWGGGRTYYADSVKGRFTISRDNAKNTVYLQMNSLKPEDSAVYYCAAGGALASQWSTKLYDYWGQGTQVTVSS,low polyreactivity
5,QVQLVESGGGLVQAGGSLRLSCAASGSTFNRYAMGWYRQAPGTERELVAAISGRGGSTYYADSVKGRFTISRDNAKNTVYLQMNSLKPEDTAVYYCAKLSYLHGTAREFRFDYWGQGTQVTVSS,high polyreactivity
6,QVQLVESGGGLVQAGGSLRLSCAASGSTFNRYAMGWYRQEPGTERELVASIRISGGSTYYADSVKGRFTISRDNAKNTVYLQMNSLKPEDTAVYYCNAKLFIRWFTYDFLGQGTQVTVSS,low polyreactivity
7,QVQLVESGGGLVQAGGSLRLSCAASGSTFNSYAMGWYRQAPGKERELVAAITSSVGSTYYADSVKGRFTISRDNAKNTVYLQMNSLKPEDTAVYYCAADYFSYWYFSGYDYWGQGTQVTVSS,low polyreactivity
8,QVQLVESGGGLVQAGGSLRLSCAASGSTFNSYAMGWYRQAPGKERELVAAITSSVGSTYYADSVKGRFTISRDNAKYTVYLQMNSLKPEDTAVYYCAADYFSYWYFSGYDYWGQGTQVTVSS,low polyreactivity
9,QVQLVESGGGLVQAGGSLRLSCAASGSTFNVYAMGWYRQAPGKERELVASIRTSGTRTYYADSVKGRFTISRDNAKNTVYLQMNSLKPEDTAVYYCNARYYSNLRRHGGYWGQGTQVTVSS,high polyreactivity
10,QVQLVESGGGLVQAGGSLRLSCAASGSTFNYYAMGWYRQAPGKERELVAGITWRGRTYYADSVKGRFTISRDNAKNTVYLQMNSLKPEDTAVYYCAARQGTYGYWGQGTQVTVSS,high polyreactivity
11,QVQLVESGGGLVQAGGSLRLSCAASGSTFPDNAMGWYRQAPGKERELVATITSGASTYYADSVKGRFTISRDNAKNTVYLQMNSLKPEDTAVYYCAVDVYFYYRHYGYWGQGTQVTVSS,low polyreactivity
12,QVQLVESGGGLVQAGGSLRLSCAASGSTFPDYSKGWYRQAPGKERLLVADITYGGSSTYYADSVKGRFTISSDNAKNTVYLQMNSLKPDDTAVYYCAADTDYYTLIRSVLAYDYWGQGTQVTVSS,low polyreactivity
13,QVQLVESGGGLVQAGGSLRLSCAASGSTFPDYVMGWYRQAPGKERELVAAISSIGGSTYYADSVKGRFTISRDKAKNTVYLQMNSLKPEDTAVYYCAAENSYFYPFDYWGQGTQVTVSS,low polyreactivity
14,QVQLVESGGGLVQAGGSLRLSCAASGSTFPFNAMGWYRQAPGKERELVAGIRSRGGSTYYADSVKGRFTISRDNAKNTVYLQMNSLKPEDTAVYYCAKVYKDRDDLFYYWGQGTQVTVSS,low polyreactivity
15,QVQLVESGGGLVQAGGSLRLSCAASGSTFPFYALGWYRQAPGKERELVAVIRGSGGRTYYADSVKGRFTISRDNAKTTVYLQMNSLKPEDTAVYYCAVKLARLYDSGYNYWGQGTQVTVSS,high polyreactivity
16,QVQLVESGGGLVQAGGSLRLSCAASGSTFPFYAMGWYRQAPGKERELVAAITSGGSTYADSVKGRFTISRDNAKNTVYLQMNSLKAEVTAVYYCAASWPRWWRFGYWGQGTQVSVSS,low polyreactivity
